Reference: paper PMC9482650, “Quantitative fragmentomics allow affinity mapping of interactomes” (Nature Communications, 2022)

Assays:
Assay in all cases: holdup assay
Set-up in all cases: key: below the threshold = too weak to quantify, mostly under pKd 3.1 to 4
GRIP2_6, Q9C0E4 = molecular target: GRIP2_6, Q9C0E4
LNX1_2, Q8TBB1 = molecular target: LNX1_2, Q8TBB1
SYNJ2BP, P57105 = molecular target: T1, SYNJ2BP, P57105
T1 sequence (P57105 8-110, limits assumed, looked up): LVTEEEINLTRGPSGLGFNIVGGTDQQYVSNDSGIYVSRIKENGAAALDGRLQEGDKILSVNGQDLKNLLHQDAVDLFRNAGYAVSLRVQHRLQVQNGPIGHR

IL16_1, Q14005 = molecular target: IL16_1, Q14005
MAST2, Q6P0Q8 = molecular target: MAST2, Q6P0Q8
GRIP1_4, Q9Y3R0 = molecular target: T2, GRIP1_4, Q9Y3R0
T2 sequence (Q9Y3R0 467-571, limits assumed, looked up): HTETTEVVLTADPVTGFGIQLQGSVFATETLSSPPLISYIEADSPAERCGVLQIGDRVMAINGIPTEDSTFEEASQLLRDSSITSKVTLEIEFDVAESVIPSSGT

PARD3_3, Q8TEW0 = molecular target: PARD3_3, Q8TEW0
SCRIB_1, Q14160 = molecular target: SCRIB_1, Q14160
LRRC7, Q96NW7 = molecular target: T3, LRRC7, Q96NW7
T3 sequence (Q96NW7 1440-1537, limits assumed, looked up): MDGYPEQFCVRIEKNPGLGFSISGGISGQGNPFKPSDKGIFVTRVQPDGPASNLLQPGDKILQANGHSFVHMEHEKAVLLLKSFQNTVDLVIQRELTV

TJP2_1, Q9UDY2 = molecular target: TJP2_1, Q9UDY2
GRIP2_4, Q9C0E4 = molecular target: GRIP2_4, Q9C0E4
GRID2IP_2, A4D2P6 = molecular target: GRID2IP_2, A4D2P6
PDZD2_2, O15018 = molecular target: T4, PDZD2_2, O15018
T4 sequence (O15018 329-429, limits assumed, looked up): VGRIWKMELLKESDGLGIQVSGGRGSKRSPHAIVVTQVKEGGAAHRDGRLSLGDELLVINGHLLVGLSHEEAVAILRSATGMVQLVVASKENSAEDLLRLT

DLG3_1, Q92796 = molecular target: T5, DLG3_1, Q92796
T5 sequence (Q92796 125-227, limits assumed, looked up): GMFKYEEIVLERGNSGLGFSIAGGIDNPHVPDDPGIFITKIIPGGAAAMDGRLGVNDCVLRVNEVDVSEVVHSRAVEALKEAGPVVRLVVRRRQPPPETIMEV

DFNB31_1, Q9P202 = molecular target: T6, DFNB31_1, Q9P202
T6 sequence (Q9P202 135-233, limits assumed, looked up): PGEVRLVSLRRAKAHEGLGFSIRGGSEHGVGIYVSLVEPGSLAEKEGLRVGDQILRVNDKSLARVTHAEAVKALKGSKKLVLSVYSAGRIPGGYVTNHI

LNX2_3, Q8N448 = molecular target: T7, LNX2_3, Q8N448
T7 sequence (Q8N448 463-564, limits assumed, looked up): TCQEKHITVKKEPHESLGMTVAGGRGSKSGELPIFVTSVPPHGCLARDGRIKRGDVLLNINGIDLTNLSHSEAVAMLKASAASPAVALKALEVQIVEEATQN

FRMPD3, Q5JV73 = molecular target: FRMPD3, Q5JV73
SNX27, Q96L92 = molecular target: SNX27, Q96L92
IL16_4, Q14005 = molecular target: IL16_4, Q14005
NHERF4_4, Q86UT5 = molecular target: NHERF4_4, Q86UT5
PTPN3, P26045 = molecular target: PTPN3, P26045
HTRA3, P83110 = molecular target: T8, HTRA3, P83110
T8 sequence (P83110 354-453, limits assumed, looked up): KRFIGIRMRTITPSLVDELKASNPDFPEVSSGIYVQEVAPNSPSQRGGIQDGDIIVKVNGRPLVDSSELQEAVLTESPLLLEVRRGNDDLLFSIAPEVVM

MAGI3_2, Q5TCQ9 = molecular target: MAGI3_2, Q5TCQ9
APBA3_1, O96018 = molecular target: T9, APBA3_1, O96018
T9 sequence (O96018 389-490, limits assumed, looked up): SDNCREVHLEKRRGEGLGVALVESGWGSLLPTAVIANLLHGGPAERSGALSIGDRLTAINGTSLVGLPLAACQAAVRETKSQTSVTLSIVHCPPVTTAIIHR

MAGI1_1, Q96QZ7 = molecular target: MAGI1_1, Q96QZ7
ARHGEF11, O15085 = molecular target: T10, ARHGEF11, O15085
T10 sequence (O15085 42-136, limits assumed, looked up): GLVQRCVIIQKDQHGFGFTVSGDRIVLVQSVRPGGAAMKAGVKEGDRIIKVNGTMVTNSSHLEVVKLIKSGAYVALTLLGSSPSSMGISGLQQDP

DLG4_2, P78352 = molecular target: DLG4_2, P78352
[1] = plain residues with an end cap or a label only (N-terminal biotin on a linker: ttds)
[2] = plain residues with an end cap or a label only (N-terminal biotin on a linker: ahx)

Sequence of DLG4_2, P78352 (P78352 155-259): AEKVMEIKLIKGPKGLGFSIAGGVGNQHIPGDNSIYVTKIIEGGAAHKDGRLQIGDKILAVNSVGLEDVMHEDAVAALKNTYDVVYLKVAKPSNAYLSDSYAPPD
Sequence of MAGI3_2, Q5TCQ9 (Q5TCQ9 398-503): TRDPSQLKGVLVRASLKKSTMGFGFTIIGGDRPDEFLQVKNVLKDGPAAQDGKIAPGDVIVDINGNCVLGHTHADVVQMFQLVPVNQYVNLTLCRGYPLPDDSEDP
Sequence of MAST2, Q6P0Q8 (Q6P0Q8 1099-1202): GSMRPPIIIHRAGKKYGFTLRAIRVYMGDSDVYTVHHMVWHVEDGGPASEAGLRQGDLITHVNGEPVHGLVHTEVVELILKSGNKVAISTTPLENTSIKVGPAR
Sequence of LNX1_2, Q8TBB1 (Q8TBB1 371-470): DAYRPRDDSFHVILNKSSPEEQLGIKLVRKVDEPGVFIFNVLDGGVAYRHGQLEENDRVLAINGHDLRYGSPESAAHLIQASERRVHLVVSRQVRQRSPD
Sequence of TJP2_1, Q9UDY2 (Q9UDY2 24-128): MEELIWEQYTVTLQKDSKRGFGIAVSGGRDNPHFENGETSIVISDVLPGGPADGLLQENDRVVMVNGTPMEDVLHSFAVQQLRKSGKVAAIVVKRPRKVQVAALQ
Sequence of SCRIB_1, Q14160 (Q14160 718-814): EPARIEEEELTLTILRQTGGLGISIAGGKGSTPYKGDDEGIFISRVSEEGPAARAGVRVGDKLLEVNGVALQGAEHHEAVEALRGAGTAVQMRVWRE
Sequence of PARD3_3, Q8TEW0 (Q8TEW0 582-685): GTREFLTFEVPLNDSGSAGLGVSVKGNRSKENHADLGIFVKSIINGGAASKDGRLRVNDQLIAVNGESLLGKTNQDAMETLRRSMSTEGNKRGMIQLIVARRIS
Sequence of IL16_1, Q14005 (Q14005 210-306): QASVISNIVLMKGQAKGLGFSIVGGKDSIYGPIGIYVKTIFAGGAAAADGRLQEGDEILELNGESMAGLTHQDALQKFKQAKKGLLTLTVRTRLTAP
Sequence of GRID2IP_2, A4D2P6 (A4D2P6 272-370): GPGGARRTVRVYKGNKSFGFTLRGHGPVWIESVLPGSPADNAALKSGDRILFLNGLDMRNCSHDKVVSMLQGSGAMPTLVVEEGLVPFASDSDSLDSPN
Sequence of NHERF4_4, Q86UT5 (Q86UT5 464-550): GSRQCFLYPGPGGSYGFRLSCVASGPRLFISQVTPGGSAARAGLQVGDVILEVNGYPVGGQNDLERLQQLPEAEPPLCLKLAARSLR
Sequence of GRIP2_6, Q9C0E4 (Q9C0E4 648-740): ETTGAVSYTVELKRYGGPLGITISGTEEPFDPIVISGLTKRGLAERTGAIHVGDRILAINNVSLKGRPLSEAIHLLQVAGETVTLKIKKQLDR
Sequence of GRIP2_4, Q9C0E4 (Q9C0E4 446-548): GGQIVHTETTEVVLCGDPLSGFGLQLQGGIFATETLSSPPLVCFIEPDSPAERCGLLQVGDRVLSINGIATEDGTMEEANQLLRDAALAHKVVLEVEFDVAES
Sequence of IL16_4, Q14005 (Q14005 1229-1329): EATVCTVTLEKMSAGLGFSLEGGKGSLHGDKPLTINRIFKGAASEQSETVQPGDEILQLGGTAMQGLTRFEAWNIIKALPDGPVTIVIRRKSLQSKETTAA
Sequence of MAGI1_1, Q96QZ7 (Q96QZ7 1-106): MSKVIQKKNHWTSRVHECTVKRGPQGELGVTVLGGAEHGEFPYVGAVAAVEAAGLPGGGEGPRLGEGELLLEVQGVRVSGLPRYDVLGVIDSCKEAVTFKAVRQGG
Sequence of FRMPD3, Q5JV73 (Q5JV73 12-100): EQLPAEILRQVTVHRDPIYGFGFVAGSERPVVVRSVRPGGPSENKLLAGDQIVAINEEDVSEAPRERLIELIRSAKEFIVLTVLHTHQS
Sequence of PTPN3, P26045 (P26045 505-587): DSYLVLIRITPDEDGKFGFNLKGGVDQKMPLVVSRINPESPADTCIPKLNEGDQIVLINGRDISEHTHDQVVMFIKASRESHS

Work on RLPKIKETTV [FRMPD4, Q14CM0] yielded a pKd (GRIP2_6, Q9C0E4; [1]) of 3.39, a pKd (LNX1_2, Q8TBB1; [1]) of 3.42 and a pKd (SYNJ2BP, P57105; [1]) of 5.47. The pKd (IL16_1, Q14005; [1]) was 4.07, the pKd (MAST2, Q6P0Q8; [1]) was 4.93 and the pKd (GRIP1_4, Q9Y3R0; [1]) was “below the threshold”. For the same binder, the pKd (PARD3_3, Q8TEW0; [1]) was “below the threshold”, the pKd (SCRIB_1, Q14160; [1]) was 4.95 and the pKd (LRRC7, Q96NW7; [1]) was 3.58. The pKd (TJP2_1, Q9UDY2; [1]) was “below the threshold”, the pKd (GRIP2_4, Q9C0E4; [1]) was “below the threshold” and the pKd (GRID2IP_2, A4D2P6; [1]) was 3.74. For the same binder, the pKd (PDZD2_2, O15018; [1]) was 4.05, the pKd (DLG3_1, Q92796; [1]) was 4.51 and the pKd (DFNB31_1, Q9P202; [1]) was 3.96. The pKd (LNX2_3, Q8N448; [1]) was “below the threshold”, the pKd (FRMPD3, Q5JV73; [1]) was “below the threshold” and the pKd (SNX27, Q96L92; [1]) was 5.73. For the same binder, the pKd (IL16_4, Q14005; [1]) was “below the threshold”, the pKd (NHERF4_4, Q86UT5; [1]) was “below the threshold” and the pKd (PTPN3, P26045; [1]) was 4.89. The pKd (HTRA3, P83110; [1]) was “below the threshold”, the pKd (MAGI3_2, Q5TCQ9; [1]) was 5.27 and the pKd (APBA3_1, O96018; [1]) was “below the threshold”. For the same binder, the pKd (MAGI1_1, Q96QZ7; [1]) was “below the threshold”, the pKd (ARHGEF11, O15085; [1]) was 3.71 and the pKd (DLG4_2, P78352; [1]) was 5.6.

In the case of RLQRRRETQV [HPV18-E6, P06463], the pKd (GRIP2_6, Q9C0E4; [1]) is reported as “below the threshold”, the pKd (LNX1_2, Q8TBB1; [1]) is reported as “below the threshold” and the pKd (SYNJ2BP, P57105; [1]) is reported as 5.35. The pKd (IL16_1, Q14005; [1]) was “below the threshold”, the pKd (MAST2, Q6P0Q8; [1]) was 4.78 and the pKd (GRIP1_4, Q9Y3R0; [1]) was “below the threshold”. For the same binder, the pKd (PARD3_3, Q8TEW0; [1]) was “below the threshold”, the pKd (SCRIB_1, Q14160; [1]) was 4.26 and the pKd (LRRC7, Q96NW7; [1]) was 3.14. For the same binder, the pKd (TJP2_1, Q9UDY2; [1]) was 3.89, the pKd (GRIP2_4, Q9C0E4; [1]) was “below the threshold” and the pKd (GRID2IP_2, A4D2P6; [1]) was “below the threshold”. The pKd (PDZD2_2, O15018; [1]) was 3.36, the pKd (DLG3_1, Q92796; [1]) was 4.34 and the pKd (DFNB31_1, Q9P202; [1]) was “below the threshold”. The pKd (LNX2_3, Q8N448; [1]) was “below the threshold”, the pKd (FRMPD3, Q5JV73; [1]) was “below the threshold” and the pKd (SNX27, Q96L92; [1]) was 4.55. For the same binder, the pKd (IL16_4, Q14005; [1]) was “below the threshold”, the pKd (NHERF4_4, Q86UT5; [1]) was “below the threshold” and the pKd (PTPN3, P26045; [1]) was 4.49. For the same binder, the pKd (HTRA3, P83110; [1]) was “below the threshold”, the pKd (MAGI3_2, Q5TCQ9; [1]) was 5.56 and the pKd (APBA3_1, O96018; [1]) was “below the threshold”. For the same binder, the pKd (MAGI1_1, Q96QZ7; [1]) was “below the threshold”, the pKd (ARHGEF11, O15085; [1]) was 3.66 and the pKd (DLG4_2, P78352; [1]) was 5.46.

For GYDWGPATDL [TJP3, O95049], the pKd (GRIP2_6, Q9C0E4; [2]) was “below the threshold”, the pKd (LNX1_2, Q8TBB1; [2]) was “below the threshold” and the pKd (SYNJ2BP, P57105; [2]) was “below the threshold”. For the same binder, the pKd (IL16_1, Q14005; [2]) was “below the threshold”, the pKd (MAST2, Q6P0Q8; [2]) was 5.77 and the pKd (GRIP1_4, Q9Y3R0; [2]) was “below the threshold”. For the same binder, the pKd (PARD3_3, Q8TEW0; [2]) was 3.66, the pKd (SCRIB_1, Q14160; [2]) was 3.76 and the pKd (LRRC7, Q96NW7; [2]) was 3.7. The pKd (TJP2_1, Q9UDY2; [2]) was “below the threshold”, the pKd (GRIP2_4, Q9C0E4; [2]) was “below the threshold” and the pKd (GRID2IP_2, A4D2P6; [2]) was 4.47. The pKd (PDZD2_2, O15018; [2]) was 4.46, the pKd (DLG3_1, Q92796; [2]) was 3.48 and the pKd (DFNB31_1, Q9P202; [2]) was 4.11. For the same binder, the pKd (LNX2_3, Q8N448; [2]) was “below the threshold”, the pKd (FRMPD3, Q5JV73; [2]) was “below the threshold” and the pKd (SNX27, Q96L92; [2]) was 3.64. The pKd (IL16_4, Q14005; [2]) was “below the threshold”, the pKd (NHERF4_4, Q86UT5; [2]) was “below the threshold” and the pKd (PTPN3, P26045; [2]) was 4.27. For the same binder, the pKd (HTRA3, P83110; [2]) was “below the threshold”, the pKd (MAGI3_2, Q5TCQ9; [2]) was “below the threshold” and the pKd (APBA3_1, O96018; [2]) was “below the threshold”. For the same binder, the pKd (MAGI1_1, Q96QZ7; [2]) was “below the threshold”, the pKd (ARHGEF11, O15085; [2]) was 4.6 and the pKd (DLG4_2, P78352; [2]) was 3.68.

With EVVHTPETSV [SLC16A3, O15427] the pKd (GRIP2_6, Q9C0E4; [1]) was “below the threshold”, the pKd (LNX1_2, Q8TBB1; [1]) was “below the threshold” and the pKd (SYNJ2BP, P57105; [1]) was 4.78. The pKd (IL16_1, Q14005; [1]) was 3.6, the pKd (MAST2, Q6P0Q8; [1]) was 5.16 and the pKd (GRIP1_4, Q9Y3R0; [1]) was “below the threshold”. For the same binder, the pKd (PARD3_3, Q8TEW0; [1]) was “below the threshold”, the pKd (SCRIB_1, Q14160; [1]) was 5.08 and the pKd (LRRC7, Q96NW7; [1]) was “below the threshold”. The pKd (TJP2_1, Q9UDY2; [1]) was “below the threshold”, the pKd (GRIP2_4, Q9C0E4; [1]) was “below the threshold” and the pKd (GRID2IP_2, A4D2P6; [1]) was “below the threshold”. For the same binder, the pKd (PDZD2_2, O15018; [1]) was 4.26, the pKd (DLG3_1, Q92796; [1]) was “below the threshold” and the pKd (DFNB31_1, Q9P202; [1]) was 3.86. The pKd (LNX2_3, Q8N448; [1]) was “below the threshold”, the pKd (FRMPD3, Q5JV73; [1]) was “below the threshold” and the pKd (SNX27, Q96L92; [1]) was 5.15. The pKd (IL16_4, Q14005; [1]) was “below the threshold”, the pKd (NHERF4_4, Q86UT5; [1]) was “below the threshold” and the pKd (PTPN3, P26045; [1]) was 4.86. For the same binder, the pKd (HTRA3, P83110; [1]) was “below the threshold”, the pKd (MAGI3_2, Q5TCQ9; [1]) was 4.33 and the pKd (APBA3_1, O96018; [1]) was “below the threshold”. The pKd (MAGI1_1, Q96QZ7; [1]) was “below the threshold”, the pKd (ARHGEF11, O15085; [1]) was 3.76 and the pKd (DLG4_2, P78352; [1]) was 4.2.
